We go through 23 sequences from the DeepSol protein solubility set.

This data set can be described thus: soluble on expression in E. coli; label from the status in PepcDB or PDB records.
On to “MAKSYDYQSAFDIIGPVMMGPSSSHTAGAVKIGNSARAILGDIPKNIEIHYYESFAQTHQGHGTDVAIVGGAMGYSTFDNRIKSSLEIAADDGIKIDIIEEEGDSIGQHPNCAYIKSSRNDGRYIEIIGISIGGGTIKIKGIHINGLEVDLNHGLPILVVDGNMTKAQVNHFINDINDMKLDCKDEFIKIDEDKCLVVIPLNKAISESTLNTIKEKYSDVNVSYIN”, for which the “soluble on expression in E. coli” value is “not soluble”.

Take “MSDNLSARWHRILDMTNRETSDDVVIARSSFDDFSQSTPWRKFEISCGNRSFFVNPGWLAELSPYFADELYVRKPNVQRYVIDQATPDEVLEFLRCITFCPMRKPLTVKNVSLVLTFANRFEMRPVQARCENFIAQNATSLSRDKTKLFQVTCAMSQCDPNSSTMSVLVDKLAGIKDDELSRLHFAEMPGDVVAEVYAQKIQRTKDKKAQRQAGASDETAAGCCFMQWASSLFNRRRQRNQADQSILPPSGDQQHHRSELHA”: the “soluble on expression in E. coli” value was “not soluble”.

Regarding “MLEKVYVALIHYPIKGKDGSIISTAVTNLDVHDIARTARTYNLKGYYIVTNLRAQQDMVSKMLKFWREGFGSRYNPSRAESLKLVKLKSYLEDVLEDIESVEGERPLIFFTSAKKRENDISFEEGRRIIIETEKPVLILLGTGWGLPDEILEISDYVLEPIRAQSDFNHLSVRAAAAIIIDRLIGENYARRD”, the “soluble on expression in E. coli” value is listed as “soluble”.

Take “MSSNDVLAQIAGLAKAAAELENDFSTDSEMQQDSEICDEVDAELFDDFETKPSSRKESSGTSRRTRMAHRELQGLQFANPGDEMSRFLPDSVDIISTNRSKRVAAEKQADLRDEPLHHDKTGKLSVTAKGQTLFFDLCDCLVVECDGCHWPCKQCKSRKCLIGCRQNRKEMVIRVEEMYTVTEAPGPVVNINPYFPGQIKD”: the “soluble on expression in E. coli” value is on record as “not soluble”.

Take “MQSWKERRDFNIVKQDLDFSCGAASVVTLLNNFYGQKLTEEDVLKKLDKEQMPASFEDMRRIMPDLGFEAKGYALSFEQLAQLQIPVIVYLKYRKDDHFSVLRGIDGNTVLLADPSLGHVSMSRAQFLDAWQTREGNLAGKILAVVPKGRDAGGDKAFFTRSPKRQTEFAVGQVKWWRAY”: the “soluble on expression in E. coli” value was “not soluble”.

For “PLTSTVNGYRNVGYFAQWGVYGRAFQAKQLDVSGTAKNLTHINYSFGNINNQTLTCFMANKAQGTGPNGSDGAGDAWADFGMGYAADKSVSGKADTWDQPLAGSFNQLKQLKAKNPKLKVMISLGGWTWSKNFSKAAATEASRQKLVSSCIDLYIKGNLPNFEGRGGAGAAAGIFDGIDIDWEWPGTNSGLAGNGVDTVNDRANFKALLAEFRKQLDAYGSTNNKKYVLSAFLPANPADIDAGGWDDPANFKSLDFGSIQGYDLHGAWNPTLTGHQANLYDDPADPRAPSKKFSADKAVKKYLAAGIDPKQLGLGLAAYGRGWTGAKNVSPWGPATDGAPGTYETANEDYDKLKTLGTDHYDAATGSAWRYDGTQWWSYDNIATTKQKTDYIVSKGLGGGMWWELSGDRNGELVGAMSDKFRAAAPGPVTEAAPP”, the “soluble on expression in E. coli” value is “soluble”.

Consider “MAHRAFIQVIITGTQVFGKAFAEAYRQAASQSVKQGATNASRRGTGKGEYGGITLDESCKILNIEESKGDLNMDKINNRFNYLFEVNDKEKGGSFYLQSKVYRAAERLKWELAQREKNAKAKAGDASTAKPPPNSTNSSGADNSASSNQ”, for which the “soluble on expression in E. coli” value is given as “not soluble”.

For the sequence “AIAAAVKDSCGKGEMATGNGRRLHLGIPEAVFVEDVDSFMKQPGNETADTVLKKLDEQYQKYKFMELNLAQKKRRLKGQIPEIKQTLEILKYMQKKKESTNSMETRFLLADNLYCKASVPPTDKVCLWLGANVMLEYDIDEAQALLEKNLSTATKNLDSLEEDLDFLRDQFTTTEVNMARVYNWDVKRRNKDDSTKNKA”, the “soluble on expression in E. coli” value is listed as “soluble”.

As to “MGSDKIHHHHHHAETVVVRFGLFAESIPVADLQKAAETGEFPSSLNLFTRRLSEQQRRTLIGALRMRVPLNVVTISRLLNTQIGTTILNDLSRAVVRKDQSGAKALRASLVLGSTAPQGLSILSFITAYPSRSLEINLPQAFQVAGSLNNAFWRTQQFMLAISPQLDPAKPQISIPFDPSQPGNAQVQVLKLNLNDQKRNRQIPADIYWSTSATQEKPVIIYSHGMGSVRTDLHYLAEHLASHGYIFVALEHPGSNQANTDLATKGKVRLLEPQEFLNRPQDVSFVLDVLEKLNQTTGNPLQGKLATNNTMVIGYSFGGGTALSLAGAELQIAGIRERCQNKLTILSLGETIQCVAQELPEKTYQLRDNRIKQAIALTPTTSLMFGETGLTKVQIPTLIVAASADKTTPALTEQILGFSKIPSPKWLVGIIGGTHLSVKDPSTTLDQVDKPNTPLTGGEIVGEQATDVRQFVKAIALAMVAQLTPEAEKYAVFLTPDYAQLASTESFPFRIVTEIPPQAIPIGKQ”, the “soluble on expression in E. coli” value is listed as “not soluble”.

On to “YRATKLWNEVTTSFRAGMPLRKHRQHFKKYGNCFTAGEAVDWLYDLLRNNSNFGPEVTRQQTIQLLRKFLKNHVIEDIKGRWGSENVDDNNQLFRFPA”, for which the “soluble on expression in E. coli” value is recorded as “soluble”.

“STNAEAVTVTNKQIIFPDYVTGFPKESDLKITTTTIDLRLPEGSTSVLVKNLYLSCDPYMRICMGKPDPLSSSLVPPYKTGVPIIGLGVSKVIDSGHPDYKKGDLLWGLVGWEEYSVITLTTYSHFKIEHTDVPLSYYTGLLGMPGMTAYAGFYEVCSPKKGETVFVSAASGAVGQLVGQFAKLMGCYVVGSAGSKEKVYLLKTKFGFDDAFNYKEEKDFSAALKRYFPEGIDIYFENVGGKMLDAVLINMKLHGRVAVCGMISQYNLVDPEGVHNLPTILYKRIQLQGFGVCDFYDKYPKFLDFVLPYIREGKITYVEDIAEGFESGPSALLGLFEGKNVGKQLFVVARE”: the “soluble on expression in E. coli” value was “soluble”.

For the sequence “AHHHHHHGSLLPDWKIRKEILIEPFSEESLQPAGYDLRVGREAFVKGKLIDVEKEGKVVIPPREYALILTLERIKLPDDVMGDMKIRSSLAREGVIGSFAWVDPGWDGNLTLMLYNASNEPVELRYGERFVQIAFIRLEGPARNPYRGNYQGSTRLAFSKRKKL”, the “soluble on expression in E. coli” value is “soluble”.

As for “MHGSQKDTTFTKIFVGGLPYHTTDASLRKYFEGFGDIEEAVVITDRQTGKSRGYGFVTMADRAAAERACKDPNPIIDGRKANVNLAYLGAKPRSLQTGFAIGV”, the “soluble on expression in E. coli” value is listed as “soluble”.

Turning to “MNKLVCSTFAILAIIAISQVQSAVLPVSSKEVALITSSASTTSSSETSIDTLGSSRVKRQGGCGCCGCGCGCCGCGGGGGGGCGCCCCRPKCCCCCRRCCTCCRTCCCTRCCTCCRPCCCGCGCGCGCCGCGGGGRKRRSLQNLRIALANKIEGIAKVVKGSAVEASVMNALAPVNDATVEEKKDVIN”, the “soluble on expression in E. coli” value is recorded as “not soluble”.

For the sequence “MGSDKIHHHHHHMGKPVSSPYYIGCSGWHYAHWVGAFYPPGLPSTGRLAFYAGRFHTVEINSSFYRLPSEKCLRAWHDGTPAGFLFALKASRFITHMKKLKDSEASLARLLGRAENLGEKLGPVLFQLPPHWRRNAKRLEGFLRVLPSGHRYAFEIRDPSWHHPEIYALLNAYNAAFCIFDIAGFQSPIQLTTDFAYIRLHGPSFAAYAGRYTTEALRAWAARIRTWGLRTVYVYFDNDQAAYATHNALELMGILGL”, the “soluble on expression in E. coli” value is reported as “not soluble”.

Turning to “FRFGLPIFHTIRWLVNLSKGKLEEPRNREGRPVSKNKKGKIKQPYRFFGEIFESMDQLTETLRRDKRNREKIQATREEWIAGLSHDLKTPLSSIYGYSMMLESKQYDWSPEEGEEMGQVVREKSEYMSKLIEDLNLTYRLKNDALPIERKLTSLIPFFKNVIEDFKKNPFSEGYDISFVSKEEHIEFALDEAWFRRILENLLGNAVKHNGKGTEIQVILEQTKNHISLKVKDNGKGMDEETITHLFNRYYRGTNTKDSTAGTGLGLAIAKELVHLHNGTIHVNSRTNIGTVITILFK”, the “soluble on expression in E. coli” value was “not soluble”.

With “MKMDRQAQFRAREALIFEVAEQLLLENGEAGMTLDALAAELDLAKGTLYKHFQSKDELYMLLIVRNERMLLEMIQDKQKSFPEHLAFFMLHHLHHPERTVMFHQIEERLSTTGQGIYDLFQELYQVRKQRLRIIINMTEIYLQEIQSTMTVRDYLAAIWSLTHGAAAILNSSFYQRYLGSRDTLRIAYIDQALAIPKHMHEQYV”, the “soluble on expression in E. coli” value is “not soluble”.

Take “MSDKFNQFINRVLSHEGGYANHPKDPGGETNWGITKRTAQANGYNGSMRAMTREQAISIYRKAFWERYRADQMPEAVAFQFFDACVNHGYGNAARMLQRAAGVPDDGVIGAVSLKAINSLPENDLLLRFNAERLVFYTKLGTFTSFGKGWVRRVAQNLIHASADNTD”: the “soluble on expression in E. coli” value was “soluble”.

Take “MSRQDPRTIEFLESVGKGEIPPSLVQQYPGKEIDFKVNRHHEEYVAPKMKPFGGSGVRLGNVVPTVLGQSSSSATTAGTSSATTDHNPDHTAENEAKQLEDAKKELSTNMNEPTTNIQIRLPNNQRLVGIFNHSHTLEAVRTFICTARPDMIYAPFQMMAAYPPKPFEDESQTLKDANVLNSVVAVKILPTTN”: the “soluble on expression in E. coli” value is listed as “not soluble”.

Turning to “MASMQKLINSVQNYAWGSKTALTELYGIANPQQQPMAELWMGAHPKSSSRITTANGETVSLRDAIEKNKTAMLGEAVANRFGELPFLFKVLCAAQPLSIQVHPNKRNSEIGFAKENAAGIPMDAAERNYKDPNHKPELVFALTPFLAMNAFREFSDIVSLLQPVAGAHSAIAHFLQVPNAERLSQLFASLLNMQGEEKSRALAVLKAALNSQQGEPWQTIRVISEYYPDDSGLFSPLLLNVVKLNPGEAMFLFAETPHAYLQGVALEVMANSDNVLRAGLTPKYIDIPELVANVKFEPKPAGELLTAPVKSGAELDFPIPVDDFAFSLHDLALQETSIGQHSAAILFCVEGEAVLRKDEQRLVLKPGESAFIGADESPVNASGTGRLARVYNKL”, the “soluble on expression in E. coli” value is listed as “soluble”.

Consider “MGSDKIHHHHHHMTMIRVNDVLSVGPQPSISEIRSLAGHGFAGMINARPDGEEASQPGNAAEREAAGHADVPYTFIPVTMPTITEADVRAFQRAMADAGGPVFAHCKTGTRALTLYALGEALDGRMSSQDMAALGQKLGIDLSAASRWFEAHRQLRPDVKGFFDPRTGSVQYVVSDPDTRKCAIVDPVLDFDEKSGATTTRNADAMLSYIAENGLSVEWILDTHPHADHFSAAQYLKEKTGAPTAIGAPVVDVQRLWRGIYNWPELRVDGSQWDRLFSDGDTFKVGSMAARVMFSPGHTLASITYVIGNAAFVHDTIFMPDSGTARADFPGGDARVLWKSIQKILDLPDETRLFTGHDYQPGGRAPKWESTVGEQKRANAHLAGVNEEAFAGLRVARDRTLPMPKLILHALQVNIQAGRLPEPEPNGTRYLKFPLDALQGAVW”, for which the “soluble on expression in E. coli” value was “not soluble”.

Take “MTSPYATIVDAREFNAPMFAEKIDRALRAGEKDAVVNVITSISNAQRQQLREPYKLKYGKDIIQALDKKFSGDLEKAIFALMETPLDYDVKQLKAAMKGLGTDEAVLIEILCSRTVDQLRAIRVTYEKEYGKALEADIAGDTSGEFRDLLVSLVTGSKDGSHDTNDAQAKDDAVRLFADGKAKLAKKDGTHFLHILATQNQYQLRKVFAYFQELAGGSIEKSIEKEFSGDLQKSYLTIVRAASDKQKFFAQQLHASMKGLGTRDNDLIRVIVTRSEVDLELIKAEFQELYSKSLADTVKGDTSGAYRDALLSIINGNHATAH”: the “soluble on expression in E. coli” value is “not soluble”.

Take “PHLAFFAFAGALGFAGWRQSKKPVQDTQIEQVEALSQAMQEEDTPLTWDDIPHVHTLSLALGYRLVHLVNKDQGAPLSQRIRGVRRNLSEQVGFLLPEVRIRDNLSLKPNQYTISLNGEVIEQGFIEPERLMAIAVGDTYGEIDGILGSDPAYQLPAVWIEHQDKAKALNMGYQVVDDGTVIATHISKIMKTNLAELFTHDDVEAMTQRLTQQAPKLAEALAAALNPAQQLKVYRQLLLDQVPLKDIRTIANTMLESSENTKDPILLAADVRCALKRTLVNLIAGQKPELNVYALSDELEQMLLTSLQQAQASGTVVLDSFPIEPNILGQFQQNLPLIRQQLKQQGLPPILLVMPQLRPLLARYARTFTQGLAVLSYNEIPENKQINVVGNLG”: the “soluble on expression in E. coli” value was “not soluble”.
